B1: W27 monoclonal IgA antibody (antibody, V domains shown)
VH: EVQLQQSGSELVKSGASVKLSCTVSGFNFTDYYIHWVRQRTEQGLEWIGRIDPENDETTYAPKFQGKATMTADTSSNTAYLQLTSLTSEDTAVYYCARSTVLDYWGHGTTLTVSS
VL: DVLMTQTPLSLPVSLGDQASISCRASQSIVHTNGNTYLEWYLQKPGQSPKLLIYKVSNRFSGVPDRFSGSGSGTDFILKISRVEAEDLGVYYCFQGSHVPPTFGGGTKLEVKR
notes: Mouse IgA from a hybridoma of small-intestinal lamina propria B cells of wild-type C57BL/6 mice, partially purified
B2: W11 monoclonal IgA antibody (antibody, V domains shown)
VH: QVQLKQSGPGLVQPSQSLSITCTVSGFSLTNYGVHWIRQSPGKGLEWLGVIWSGGRIDYNAAFISRLNINKDNSKSQVFFKMNSLQTDDTAIYYCARTYDGYYFFQYWGQGTPLTVSS
VL: DVVMTQTPLSLPVSLGDEASISCRSSRSLIHSNGHTFLDWYLQKPGQSPKLLIYKVSNRFSGVPDRFSGSGSGTDFTLKISRVEAEDLGVYFCAQSTHAPLLTFGAGTKLELKR
notes: Mouse IgA from hybridoma
B3: W34 monoclonal IgA antibody (antibody, V domains shown)
VH: DVQLQESGPGMVKPSQSLSLTCTVTGYSITSGYDWHWIRHFPGNKLEWMGYISYSGSTDYNPALRSRISITRDTSTNHFFLKVNSVTTEDTATYYCARDGYGSNYVMAYWGQGTSVTVSS
VL: QIVLTQSPAIMSASPGEKVTITCSASSSVHYIHWFQLKPGTSPKLWIYSTSNLASGVPARFSGSGSGTSYSLTISRMEAEDAATYYCQQRSSYPLTFGAGTKLELKR
notes: Mouse IgA from hybridoma

Legend:
[1] = target: T1, serine hydroxymethyltransferase Δ2-28 mutant (Escherichia coli, UniProt A7ZPZ4 29-417); experiment: Western blot of cell lysates (E. coli and 293T expression)
T1 construct: Expressed in Escherichia coli cells and 293T cells; tested in Western blotting of cell lysate; not shown: Myc-tag (40aa) at the C-terminus
T1 sequence: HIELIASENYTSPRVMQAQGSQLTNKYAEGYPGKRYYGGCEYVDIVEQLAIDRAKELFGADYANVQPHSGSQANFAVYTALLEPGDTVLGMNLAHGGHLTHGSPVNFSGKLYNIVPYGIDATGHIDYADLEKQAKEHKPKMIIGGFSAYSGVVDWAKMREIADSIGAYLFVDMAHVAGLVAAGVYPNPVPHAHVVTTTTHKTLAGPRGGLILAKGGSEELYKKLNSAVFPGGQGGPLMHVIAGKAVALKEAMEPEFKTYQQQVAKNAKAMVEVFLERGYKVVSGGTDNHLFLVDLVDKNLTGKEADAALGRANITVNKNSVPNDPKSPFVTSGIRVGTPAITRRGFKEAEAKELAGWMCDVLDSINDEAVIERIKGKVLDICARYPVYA

[2] = target: T2, full length serine hydroxymethyltransferase (SEQ ID NO: 74), c-Myc tagged at the C-terminus (Escherichia coli, UniProt A7ZPZ4 1-417); experiment: Western blot of c-Myc-tagged full-length SHMT expressed in E. coli (DH5α)
T2 construct: Expressed in Escherichia coli (DH5α); tested denatured in Western blotting of cell lysate; also called SHMT; full length: wild-type
T2 sequence: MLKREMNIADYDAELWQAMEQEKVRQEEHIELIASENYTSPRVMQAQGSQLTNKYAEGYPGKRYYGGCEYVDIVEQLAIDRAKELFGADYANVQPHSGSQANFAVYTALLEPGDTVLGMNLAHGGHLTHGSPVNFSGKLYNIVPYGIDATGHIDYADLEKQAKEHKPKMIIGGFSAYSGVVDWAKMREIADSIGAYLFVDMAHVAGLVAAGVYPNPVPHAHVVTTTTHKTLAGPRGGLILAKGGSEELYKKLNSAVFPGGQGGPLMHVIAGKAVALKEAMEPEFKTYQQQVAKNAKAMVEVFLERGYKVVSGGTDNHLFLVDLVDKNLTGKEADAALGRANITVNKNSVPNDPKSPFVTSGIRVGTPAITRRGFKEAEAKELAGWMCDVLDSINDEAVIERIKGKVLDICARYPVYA

Binder | binding result [1] | binding result [2]
B1 | no binding | –
B2 | – | binds
B3 | – | binds

— patent US20180009906A1 (CURED, published 2018)
